Assay results: US20250326813A1 (ELPIS BIOPHARMACEUTICALS, published 2025)
Numbering of substitutions follows the chain as printed.

T1: human IL2Rα Fc fusion protein (human, UniProt P01589 22-213, limits assumed)
T1 construct: also called CD25; not shown: Fc part
T1 sequence (looked up): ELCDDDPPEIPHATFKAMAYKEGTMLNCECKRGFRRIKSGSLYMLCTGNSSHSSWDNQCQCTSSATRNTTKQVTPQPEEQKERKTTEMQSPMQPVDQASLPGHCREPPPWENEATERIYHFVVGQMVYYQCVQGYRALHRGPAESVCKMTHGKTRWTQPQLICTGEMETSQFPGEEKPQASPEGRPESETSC

T2: human IL2Rβ Fc fusion protein (human, UniProt P14784 27-239)
T2 construct: also called ILR2β; CD122; not shown: Fc part
T2 sequence (looked up): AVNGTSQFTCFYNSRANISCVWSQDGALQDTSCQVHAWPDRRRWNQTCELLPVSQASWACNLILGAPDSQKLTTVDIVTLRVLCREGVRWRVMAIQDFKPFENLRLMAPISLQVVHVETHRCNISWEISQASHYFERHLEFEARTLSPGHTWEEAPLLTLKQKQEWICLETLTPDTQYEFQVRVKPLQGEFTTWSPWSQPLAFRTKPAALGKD

B1: EP564 (clone 2021EP22-E11), E. coli-produced (ligand)
chain: APASSSTKKTQLQLEHLLLDLQMILNGINNYKNPKLTRMLTFKFYMPKKATELKHLQCLEEELKPLEEVLNLAQSKNFHLRFKALIIEINFIVQLLKGSETTFMCEYADETATIVEFLNRWITFSQSIISTLT
B2: EP565 (clone 2021EP22-F10), E. coli-produced (ligand)
chain: B1 chain with F82S, K83R, A84Q, I87S, E88N, I89M, F91G, V93I, Q94L, L95K
B3: EP581 (clone 2021EP16-C10), E. coli-produced (ligand)
chain: APASSSTKKTQLQLEHLLLDLQMILNGINNYKNPKLTRMLTFKFYMPKKATELKHLQCLEEELKPLEEVLNLAQSKNFHLRSREVVSRIDAIILELKGSETTFMCEYADETATIVEFLNRWITFSQSIISTLT
B4: EP569 (clone 2021EP22-E03), E. coli-produced (ligand)
chain: APASSSTKKTQLQLEHLLLDLQMILNGINNYKNPKLTRMLTFKFYMPKKATELKHLQCLEEELKPLEEVLNLAQSKNFHLRRKESINHMIVVFPVLKGSETTFMCEYADETATIVEFLNRWITFSQSIISTLT
B5: EP578 (clone 2021EP16-H02), E. coli-produced (ligand)
chain: B3 chain with R81T, S82T, E84D, S87M, R88T, I89M, D90A, A91R, I93D
B6: EP566 (clone 2021EP22-H09), E. coli-produced (ligand)
chain: APASSSTKKTQLQLEHLLLDLQMILNGINNYKNPKLTRMLTFKFYMPKKATELKHLQCLEEELKPLEEVLNLAQSKNFHLRLTHLRNVIGVILVQLKGSETTFMCEYADETATIVEFLNRWITFSQSIISTLT
B7: EP583 (clone 2021EP16-H10), E. coli-produced (ligand)
chain: APASSSTKKTQLQLEHLLLDLQMILNGINNYKNPKLTRMLTFKFYMPKKATELKHLQCLEEELKPLEEVLNLAQSKNFHLSAIDLMSSVKVVVWKLKGSETTFMCEYADETATIVEFLNRWITFSQSIISTLT
B8: EP574 (clone 2021EP22-B04), E. coli-produced (ligand)
chain: APASSSTKKTQLQLEHLLLDLQMILNGINNYKNPKLTRMLTFKFYMPKKATELKHLQCLEEELKPLEEVLNLAQSKNFHLFTKDLTSTMQILVLQLKGSETTFMCEYADETATIVEFLNRWITFSQSIISTLT
B9: EP572 (clone 2021EP21-C03), E. coli-produced (ligand)
chain: B7 chain with S81R, I83R, L85I, M86V, S87R, S88N, V89A, V92G, W94Q, K95E
B10: EP576 (clone 2021EP21-C10), E. coli-produced (ligand)
chain: APASSSTKKTQLQLEHLLLDLQMILNGINNYKNPKLTRMLTFKFYMPKKATELKHLQCLEEELKPLEEVLNLAQSKNFHLLPRNKISKTKVMVHELKGSETTFMCEYADETATIVEFLNRWITFSQSIISTLT
B11: EP582 (clone 2021EP16-G10), E. coli-produced (ligand)
chain: B10 chain with L81T, P82H, N84D, K85V, K88D, T89V, K90N, M92L, V93A, H94L
B12: EP577 (clone 2021EP16-E05), E. coli-produced (ligand)
chain: B7 chain with S81K, D84A, L85F, M86I, S88D, V89L, V92R, W94L, K95D
B13: EP570 (clone 2021EP21-E03), E. coli-produced (ligand)
chain: B7 chain with A82S, I83S, D84G, M86L, S87G, S88D, K90W, V92I, W94L, K95D
B14: EP585 (clone 2021EP16-C03), E. coli-produced (ligand)
chain: APASSSTKKTQLQLEHLLLDLQMILNGINNYKNPKLTRMLTFKFYMPKKATELKHLQCLEEELKPLEEVLNLAQSKNFHLSPPDLIANMAVYFVELKGSETTFMCEYADETATIVEFLNRWITFSQSIISTLT
B15: EP571 (clone 2021EP22-H02), E. coli-produced (ligand)
chain: B14 chain with S81R, P83S, D84E, I86M, N88T, A90R, Y92P, F93V, V94Q, E95A
B16: EP573 (clone 2021EP16-E02), E. coli-produced (ligand)
chain: APASSSTKKTQLQLEHLLLDLQMILNGINNYKNPKLTRMLTFKFYMPKKATELKHLQCLEEELKPLEEVLNLAQSKNFHLNRTDLVGDVNATIKALKGSETTFMCEYADETATIVEFLNRWITFSQSIISTLT
B17: EP575 (clone 2021EP16-D09), E. coli-produced (ligand)
chain: B1 chain with F82N, A84G, L85I, I86L, I87G, E88D, N90S, F91N, Q94L, L95A
B18: EP586 (clone 2021EP16-E07), E. coli-produced (ligand)
chain: B6 chain with L82P, T83R, H84D, L85S, N87R, V88L, G90S, L93V, V94F, Q95R
B19: EP579 (clone 2021EP16-E11), E. coli-produced (ligand)
chain: APASSSTKKTQLQLEHLLLDLQMILNGINNYKNPKLTRMLTFKFYMPKKATELKHLQCLEEELKPLEEVLNLAQSKNFHLRPSYIVSYTNVFPLVLKGSETTFMCEYADETATIVEFLNRWITFSQSIISTLT

These binders were tested against T1, human IL2Rα Fc fusion protein (assay: ELISA, single concentration, anti-flag detection, E. coli-produced clone).
Experimental: (§1) Supernatants containing engineered IL2 mutants were assessed with sandwich ELISA assay to screen for IL2Rα binding. Briefly, 96-well plate was immobilized with human Fc and human IL2Rα, respectively, at a final concentration of 2 μg/mL in 1× PBS in total volume of 50 μL per well. The plate was incubated overnight at 4° C. followed by blocking with 200 μL of superblock per well for 1 hour. 100 μl of supernatant was added to both Fc and IL2Rα immobilized wells and incubated for 1 hour with shaking. The engineered IL2 mutant binding was detected by adding 50 μL of anti-Flag HRP diluted at 1:5000 in 1× PBST. In between each step, the plate was washed three times with 1× PBST in a plate washer. The plate was then developed with 50 μL of TMB substrate for five minutes and stopped by adding 50 μL of 2N sulfuric acid. The plate was read at OD450 nm using a Biotek plate reader and the binding and selectivity was analyzed.
as §1, with “Single clones were next screened for IL2Rβ binding. IL2Rβ binding screening ELISA was developed for the identification of individual” for “Supernatants containing”, “mutant.” for “mutants were assessed with sandwich ELISA assay to screen for IL2Rα binding.”, “IL2Rβ,” for “IL2Rα,”, “IL2Rβ” for “IL2Rα”
(§2) To further triage, the engineered IL2 clones with unique sequences were produced in E. coli. In short, the glycerol stock of each engineered agonist clone was inoculated into TB medium for overnight growth. The next day, cells from the overnight culture were inoculated into TB medium and grown to a cell density of OD₆₀₀ between 0.6-0.8. IPTG was added to a final concentration of 1 mM to induce the expression during culture at 30° C. overnight. The supernatant was collected by centrifugation.

Going from B1 to B2, the OD450 nm rises from 0.086 OD450 to 0.105 OD450.

Going from B3 to B4, the OD450 nm falls from 0.88 OD450 to 0.433 OD450.

Compared with B5, B6 is lower in OD450 nm: 0.857 OD450 for the first, 0.251 OD450 for the second.

First: B7
Second: B8
The OD450 nm of the first is higher: 0.749 OD450 for the first, 0.171 OD450 for the second.

Going from B9 to B10, the OD450 nm rises from 0.079 OD450 to 0.361 OD450.

First: B11
Second: B12
The OD450 nm of the first is higher: 1.08 OD450 for the first, 0.771 OD450 for the second.

First: B13
Second: B14
The OD450 nm of the first is lower: 0.528 OD450 for the first, 0.614 OD450 for the second.

Going from B15 to B16, the OD450 nm rises from 0.423 OD450 to 1.58 OD450.

With B17 the OD450 nm was 1.25 OD450.

The binders below were run against T2, human IL2Rβ Fc fusion protein in the same assay as above.
Experimental: as §1
as §1, with “Single clones were next screened for IL2Rβ binding. IL2Rβ binding screening ELISA was developed for the identification of individual” for “Supernatants containing”, “mutant.” for “mutants were assessed with sandwich ELISA assay to screen for IL2Rα binding.”, “IL2Rβ,” for “IL2Rα,”, “IL2Rβ” for “IL2Rα”
as §2

Compared with B3, B7 is higher in OD450 nm: 0.127 OD450 for the first, 0.323 OD450 for the second.

Compared with B18, B9 is lower in OD450 nm: 0.505 OD450 for the first, 0.143 OD450 for the second.

Compared with B10, B11 is lower in OD450 nm: 1.12 OD450 for the first, 0.337 OD450 for the second.

Compared with B12, B19 is higher in OD450 nm: 0.149 OD450 for the first, 0.611 OD450 for the second.

Going from B14 to B15, the OD450 nm rises from 0.583 OD450 to 0.653 OD450.

First: B16
Second: B17
The OD450 nm of the first is higher: 0.07 OD450 for the first, 0.057 OD450 for the second.

The binders below were run against T1, human IL2Rα Fc fusion protein (assay: SPR (Biacore T200), receptor captured on Protein A chip, IL2 at 100 nM and 20 nM).
Experimental: The assay was run with Biacore T200 control software version 2.0. For each cycle, 1 μg/mL of human IL2Rβ or IL2Rα was captured for 60 seconds at flow rate of 10 μL/min on flow cell 2 in 1× HBSP buffer on Protein A sensor chip. 100 nM and 20 nM of HIS tag purified engineered IL2 mutant was injected onto both reference flow cell 1 and IL2Rβ or IL2Rα captured flow cell 2 for 150 seconds at flow rate of 30 μL/min followed by washing for 300 seconds. The flow cells were then regenerated with Glycine pH 2 for 60 seconds at a flow rate of 30 μL/mins. The kinetics data was analyzed with Biacore T200 evaluation software 3000. The specific binding response unit was derived from subtraction of binding to reference flow cell 1 from target flow cell 2.

First: B1
Second: B2
The Kd of the first is 7.9-fold lower: 18 nM for the first, 142 nM for the second.

Compared with B3, B4 is 2.2-fold lower in Kd: 106 nM for the first, 47.8 nM for the second. The second binds more tightly here.

First: B5
Second: B6
The Kd of the first is 18-fold higher: 9340 nM for the first, 523 nM for the second.

First: B8
Second: B9
The Kd of the first is 2.7-fold higher: 207 nM for the first, 75.5 nM for the second. The second binds more tightly here.

B10 and B11 are within 1.5-fold of each other in Kd: 143 nM for the first, 151 nM for the second.

Compared with B12, B13 is 45-fold lower in Kd: 956 nM for the first, 21.3 nM for the second. The second binds more tightly here.

Going from B14 to B15, the Kd falls from 4260 nM to 117 nM (36-fold). The second binds more tightly here.

Going from B16 to B17, the Kd rises from 55.1 nM to 98.2 nM (1.8-fold). The first binds more tightly here.
